The target in the test is T1, CEA antigen (UniProt P06731 35-685, limits assumed).
T1 sequence (looked up): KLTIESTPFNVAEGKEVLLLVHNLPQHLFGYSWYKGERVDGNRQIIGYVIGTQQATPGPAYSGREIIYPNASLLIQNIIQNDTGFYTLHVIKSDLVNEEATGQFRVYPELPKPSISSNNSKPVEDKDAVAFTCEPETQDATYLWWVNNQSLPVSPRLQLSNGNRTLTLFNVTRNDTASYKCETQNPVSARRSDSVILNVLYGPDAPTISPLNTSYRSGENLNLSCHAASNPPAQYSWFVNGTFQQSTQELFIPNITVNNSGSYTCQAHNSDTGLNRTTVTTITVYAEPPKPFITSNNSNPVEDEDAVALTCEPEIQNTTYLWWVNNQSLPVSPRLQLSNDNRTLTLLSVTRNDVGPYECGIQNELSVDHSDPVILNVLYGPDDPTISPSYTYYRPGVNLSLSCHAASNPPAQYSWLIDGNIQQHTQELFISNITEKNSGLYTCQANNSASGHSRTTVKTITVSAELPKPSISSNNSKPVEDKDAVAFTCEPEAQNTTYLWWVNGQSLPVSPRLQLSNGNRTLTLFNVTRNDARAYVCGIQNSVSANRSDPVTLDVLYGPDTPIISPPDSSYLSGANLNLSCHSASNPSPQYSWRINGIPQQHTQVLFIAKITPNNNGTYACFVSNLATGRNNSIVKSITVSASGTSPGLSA
Kind of test: ELISA, plates coated with CEA antigen; MN14 as the standard. Here is the method:
Single colonies were made and from an initial 50 clones, 38 viable clones were obtained. The supernatants of these clones were analyzed for human kappa light chain, human Fc (IgG) and CEA antigen binding. For the huLC and huFc assay, the plates were coated with anti-huFab, for the CEA binding assay, the plates were coated with CEA antigen. All values are in ng/ml. Purified MN14 was used as a standard.

B1: MN14 antibody (antibody, V domains shown)
VH: EVQLVESGGGVVQPGRSLRLSCSASGFDFTTYWMSWVRQAPGKGLEWIGEIHPDSSTINYAPSLKDRFTISRDNAKNTLFLQMDSLRPEDTGVYFCASLYFGFPWFAYWGQGTPVTVSS
VL: DIQLTQSPSSLSASVGDRVTITCKASQDVGTSVAWYQQKPGKAPKLLIYWTSTRHTGVPSRFSGSGSGTDFTFTISSLQPEDIATYYCQQYSLYRSFGQGTKVEIKR
notes: Purified MN14 used as the standard of the assays; also called Purified MN14
In the case of B1, the binding result is listed as “binds”.
